Test results published in patent US8889621B2, “Inhibiting binding of FGF23 to the binary FGFR-Klotho complex for the treatment of hypophosphatemia” (New York University, priority 2009, dated 2014).
Entries after “also recorded” stand apart in the source; their conditions may differ.

T1: FGFR1c ectodomain (Homo sapiens, UniProt P11362)
T1 construct: made in house; host or cells: E. coli
T1 sequence (P11362 142-365): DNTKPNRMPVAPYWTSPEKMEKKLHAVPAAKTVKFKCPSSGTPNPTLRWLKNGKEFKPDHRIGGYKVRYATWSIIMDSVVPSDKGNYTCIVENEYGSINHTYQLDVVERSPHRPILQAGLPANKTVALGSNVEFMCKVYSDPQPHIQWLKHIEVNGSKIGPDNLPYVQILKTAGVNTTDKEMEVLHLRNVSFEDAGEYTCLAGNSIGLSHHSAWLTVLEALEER

T2: FGFR1c-βKlotho-FGF21 (UniProt P11362+Q99N32)
T2 construct: the ectodomain of murine βKlotho (F53 to L995) was expressed in HEK293 cells; FLAG (C); made in house; host or cells: E. coli (FGFR1c, FGF21); HEK293 (βKlotho ectodomain)
T2 sequence (P11362 142-365): T1 sequence (P11362 142-365)
T2 sequence (Q99N32 53-995): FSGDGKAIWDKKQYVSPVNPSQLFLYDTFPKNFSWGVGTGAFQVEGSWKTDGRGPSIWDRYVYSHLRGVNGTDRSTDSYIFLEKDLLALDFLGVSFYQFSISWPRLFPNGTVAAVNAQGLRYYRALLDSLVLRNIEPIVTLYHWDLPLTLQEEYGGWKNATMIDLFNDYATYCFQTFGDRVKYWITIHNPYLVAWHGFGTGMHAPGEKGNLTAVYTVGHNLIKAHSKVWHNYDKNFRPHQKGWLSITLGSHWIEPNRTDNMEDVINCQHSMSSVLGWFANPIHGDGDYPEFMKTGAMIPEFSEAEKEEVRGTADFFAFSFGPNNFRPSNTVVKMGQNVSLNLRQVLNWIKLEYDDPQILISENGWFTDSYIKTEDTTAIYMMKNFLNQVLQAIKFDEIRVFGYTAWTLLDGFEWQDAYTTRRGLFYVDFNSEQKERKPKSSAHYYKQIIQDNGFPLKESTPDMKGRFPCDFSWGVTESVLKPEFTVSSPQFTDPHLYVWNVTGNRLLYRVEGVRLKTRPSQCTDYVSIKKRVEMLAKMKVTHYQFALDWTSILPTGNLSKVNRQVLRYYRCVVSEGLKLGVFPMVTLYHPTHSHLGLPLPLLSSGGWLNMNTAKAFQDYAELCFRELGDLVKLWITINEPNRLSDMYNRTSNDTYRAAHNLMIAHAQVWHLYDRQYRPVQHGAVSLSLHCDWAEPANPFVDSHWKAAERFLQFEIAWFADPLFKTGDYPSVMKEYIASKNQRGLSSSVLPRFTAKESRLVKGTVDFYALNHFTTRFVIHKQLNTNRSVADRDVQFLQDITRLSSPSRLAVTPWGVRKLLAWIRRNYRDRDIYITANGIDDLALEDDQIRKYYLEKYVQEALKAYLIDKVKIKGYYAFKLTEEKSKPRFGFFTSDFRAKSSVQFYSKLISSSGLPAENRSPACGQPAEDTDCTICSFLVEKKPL

T3: βKlotho-FGF21 (Mus musculus, UniProt Q99N32)
T3 construct: the ectodomain of murine βKlotho (F53 to L995) was expressed in HEK293 cells; FLAG (C); made in house; host or cells: HEK293 (βKlotho ectodomain); E. coli (FGF21)
T3 sequence (Q99N32 53-995): T2 sequence (Q99N32 53-995)

T4: FGFR1c-βKlotho-FGF19 (UniProt P11362+Q99N32)
T4 construct: the ectodomain of murine βKlotho (F53 to L995) was expressed in HEK293 cells; FLAG (C); made in house; host or cells: E. coli (FGFR1c, FGF19); HEK293 (βKlotho ectodomain)
T4 sequence (P11362 142-365): T1 sequence (P11362 142-365)
T4 sequence (Q99N32 53-995): T2 sequence (Q99N32 53-995)

B1: FGF23^28-251: human FGF23 (A28 to I251), bioactive full-length ligand expressed in E. coli (protein, listed as Homo sapiens)
chain: ASPLLGSSWGGLIHLYTATARNSYHLQIHKNGHVDGAPHQTIYSALMIRSEDAGFVVITGVMSRRYLCMDFRGNIFGSHYFDPENCRFQHQTLENGYDVYHSPQYHFLVSLGRAKRAFLPGMNPPPYSQFLSRRNEIPLIHFNTPIPRRHTRSAEDDSERDPLNVLKPRARMTPAPASCSQELPSAEDNSPMASDPLGVVRGGRVNTHAGGTGPEGCRPFAKFI
B2: FGF23^180-251: 72-amino acid C-terminal tail of human FGF23 (S180 to I251), expressed in E. coli (protein, listed as Homo sapiens)
chain: SAEDDSERDPLNVLKPRARMTPAPASCSQELPSAEDNSPMASDPLGVVRGGRVNTHAGGTGPEGCRPFAKFI

How the values were obtained:
[1] = target: T1, FGFR1c ectodomain; assay: SPR: FGFR1c ectodomain passed over immobilized FGF23; format: binding
Procedure: Surface plasmon resonance (SPR) spectroscopy experiments were performed on a Biacore 2000 instrument (Biacore AB), and FGF23-FGFR1c-Klotho interactions were studied at 25° C. in HBS-EP buffer (10 mM HEPES-NaOH, pH 7.4, 150 mM NaCl, 3 mM EDTA, 0.005% (v/v) polysorbate 20). Proteins were immobilized by amine coupling on flow channels of research grade CM5 chips (Biacore AB). Proteins were injected over a CM5 chip at a flow rate of 50 μl min^−1, and at the end of each protein injection (180 s), HBS-EP buffer (50 μl min^−1) was flowed over the chip to monitor dissociation for 180 s. The chip surface was then regenerated by injecting 50 μl of 2.0 M NaCl in 10 mM sodium acetate, pH 4.5. To control for nonspecific binding in experiments where Klotho ectodomain was immobilized on the chip, β-glucuronidase was coupled to the control flow channel of the chip (˜26-32 fmole/mm^2). […] The data were processed with BiaEvaluation software (Biacore AB). For each protein injection over a Klotho chip, the nonspecific responses from the β-glucuronidase control flow channel were subtracted from the responses recorded for the Klotho flow channel. Similarly, for each protein injection over a FGF chip, the nonspecific responses from the FHF1B control flow channel were subtracted from the responses recorded for the FGF flow channel. […]

[2] = target: T2, FGFR1c-βKlotho-FGF21; assay: SPR specificity: FGFR1c-βKlotho binding to immobilized FGF21^29-209; parameters: species or system human FGFR1c, murine βKlotho, human FGF21; details: 10-fold molar excess over FGFR1c-βKlotho
[3] = target: T3, βKlotho-FGF21; assay: SPR specificity: βKlotho binding to immobilized FGF21^29-209; parameters: species or system murine βKlotho, human FGF21; details: molar ratio of 2:1 to βKlotho
[4] = target: T4, FGFR1c-βKlotho-FGF19; assay: SPR specificity: FGFR1c-βKlotho binding to immobilized FGF19^23-216; parameters: species or system human FGFR1c, murine βKlotho, human FGF19; details: 10-fold molar excess over FGFR1c-βKlotho

Row | Molecule | binding of FGF23 to FGFR1c ectodomain alone [1] | inhibition of FGFR1c-βKlotho binding to immobilized FGF21 [2] | inhibition of βKlotho binding to immobilized FGF21 [3] | inhibition of FGFR1c-βKlotho binding to immobilized FGF19 [4]
1 | B1 | poor binding | – | – | –
2 | B2 | – | did not affect; also recorded: no inhibition | failed to inhibit; also recorded: no inhibition | did not affect; also recorded: no inhibition
